Laboratory results as given in paper PMC6547884, “Molecular Basis for poly(A) RNP Architecture and Recognition by the Pan2-Pan3 Deadenylase” (Cell, 2019).
One block for each binder: values may come before it.

How the values were obtained:
[1] = target: the molecule itself; assay: cryo-EM structure; Pan2cat-Pan3 with 90A RNA and three Pab1, reconstituted as for SEC and purified on Superose 6; overall nominal resolution 4.8 Å, focused maps 4.7 and 4.5 Å
[2] = target: T1, Ccr4(110-837)-Caf1(146-433) complex (S. cerevisiae, UniProt P31384 110-837; P39008 146-433); assay: SEC; reconstitution: purified Not1(754-1000) mixed with Ccr4(110-837)-Caf1(146-433) in equimolar amounts; Superdex200 16/60, 20 mM Tris pH 7.5, 250 mM NaCl, 1 mM DTT; settings: both partners purified
T1 construct: The complex is His-tagged; also called core yeast Ccr4-Caf1 nucleases; source: Trichoplusia ni Hi5 insect cells (pFastBac DUAL), purified (IMAC, heparin, SEC)
T1 sequence (looked up) 1: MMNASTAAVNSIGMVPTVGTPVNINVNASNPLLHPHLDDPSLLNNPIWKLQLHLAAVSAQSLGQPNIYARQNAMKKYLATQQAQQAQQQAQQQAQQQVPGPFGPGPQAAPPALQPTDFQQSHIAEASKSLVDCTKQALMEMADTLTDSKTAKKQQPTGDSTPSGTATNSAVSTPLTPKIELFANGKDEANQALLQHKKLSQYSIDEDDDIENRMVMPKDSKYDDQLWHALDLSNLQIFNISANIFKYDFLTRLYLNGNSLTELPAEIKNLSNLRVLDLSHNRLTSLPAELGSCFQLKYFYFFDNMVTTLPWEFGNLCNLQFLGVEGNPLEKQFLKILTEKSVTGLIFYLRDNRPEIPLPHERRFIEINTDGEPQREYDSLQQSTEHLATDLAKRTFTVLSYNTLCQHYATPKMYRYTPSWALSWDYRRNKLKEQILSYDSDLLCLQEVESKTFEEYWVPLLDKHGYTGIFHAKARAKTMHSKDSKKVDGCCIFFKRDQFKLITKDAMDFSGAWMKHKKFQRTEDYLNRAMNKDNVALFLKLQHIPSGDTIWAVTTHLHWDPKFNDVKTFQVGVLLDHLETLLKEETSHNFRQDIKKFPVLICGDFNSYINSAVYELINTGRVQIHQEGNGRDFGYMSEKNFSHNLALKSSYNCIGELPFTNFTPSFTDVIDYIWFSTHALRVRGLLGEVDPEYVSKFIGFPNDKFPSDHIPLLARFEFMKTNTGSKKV
T1 sequence (looked up) 2: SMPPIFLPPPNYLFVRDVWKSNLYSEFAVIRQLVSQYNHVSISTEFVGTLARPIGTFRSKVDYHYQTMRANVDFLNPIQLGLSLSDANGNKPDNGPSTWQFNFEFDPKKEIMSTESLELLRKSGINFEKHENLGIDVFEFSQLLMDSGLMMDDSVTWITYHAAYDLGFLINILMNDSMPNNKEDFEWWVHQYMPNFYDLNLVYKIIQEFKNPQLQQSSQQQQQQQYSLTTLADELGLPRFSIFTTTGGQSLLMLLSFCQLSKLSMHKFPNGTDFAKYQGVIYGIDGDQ

[3] = target: the molecule itself; assay: cryo-EM structure; substrate-free Pan2cat-Pan3Δ(1-162); Volta phase plate; nominal global resolution about 4.5 Å

B1: Pan3 (S. cerevisiae, C-terminal deca-histidine tag) (natural protein, UniProt P36102 1-679, looked up)
chain: MDKINPDWAKDIPCRNITIYGYCKKEKEGCPFKHSDNTTATTINDVPPPIDVGEATTPTMTSVPKFNAKVSASFTPMTVGSDSLTTVTNTTSAATNATGNIAMAATSATASTVNPMINPIVNSSLVNNNNNNSNISISIPTTASSSNYDPFNAPIFTPSSTSSIHTNANAHSFPFPSIANSGGININATDDNSNNMSMANNVPPPMQPPPIESSNLKYPRIYPPPHSLLQYHLYAPEQPSSLKSLLKPNERSADQLFIPNNIREDLTKKNLSILQVFPSSGKVIPSIVQDYFNLVPLNFNNNDFLNKTTLFKVFSNYDGKAYVLKRLPNIDKSMNPNKISKIYQIWSKINCTNLIKFRDIFQTTKFGDLSICLVFDYYPNSLSLYDYHFVNFPKFPITNNYLWIYLVQLTNVINSIHSQNLSIGNTLNWRKVLITGDPGRIKLSHCNFMDLLFNDDTDTVVSSGGSTIEGQQQLDYKYLGELLFNLSINIENSNNNTAPKEYRLEEITPQSIDDMRQIDDKFKDVLKYLISDNGDSKKSIHDLTSHFYDKMFMVLESSQTYTEYMESVLSRELENGRLFRLVNKLNCIFGRIESRIDINWSESGTKFPIILFYDYVFHQVDSNGKPIMDLTHVLRCLNKLDAGIQEKLMLVTPDELNCIIISYKELKDLIESTFRSITQ
notes: Pan3, S. cerevisiae; The Pan3 chain of m1, written alone for the pairs that touch in the structure and for co-purification; also called Pan3straight; Pan3bent; source: Trichoplusia ni Hi5 insect cells, co-expressed with Pan2, purified as a complex; not shown: His10, C-terminal, kept
stoichiometry N [1]: 2

binding result [2]: binds
B2: Not1(754-1000) (domain or fragment, S. cerevisiae, UniProt P25655 754-1000, looked up)
chain: RSRPVQEMIPLKFFAVDEVSCQINQEGAPKDVVEKVLFVLNNVTLANLNNKVDELKKSLTPNYFSWFSTYLVTQRAKTEPNYHDLYSKVIVAMGSGLLHQFMVNVTLRQLFVLLSTKDEQAIDKKHLKNLASWLGCITLALNKPIKHKNIAFREMLIEAYKENRLEIVVPFVTKILQRASESKIFKPPNPWTVGILKLLIELNEKANWKLSLTFEVEVLLKSFNLTTKSLKPSNFINTPEVIETLSG
notes: source: E. coli BL21 DE3, purified (IMAC, tag cleavage, heparin, SEC); not shown: SUMO, N-terminal, cleaved; His tag, N-terminal, cleaved

B3: Pan3Δ(1-162) (domain or fragment, S. cerevisiae, UniProt P36102 163-679, looked up)
chain: SIHTNANAHSFPFPSIANSGGININATDDNSNNMSMANNVPPPMQPPPIESSNLKYPRIYPPPHSLLQYHLYAPEQPSSLKSLLKPNERSADQLFIPNNIREDLTKKNLSILQVFPSSGKVIPSIVQDYFNLVPLNFNNNDFLNKTTLFKVFSNYDGKAYVLKRLPNIDKSMNPNKISKIYQIWSKINCTNLIKFRDIFQTTKFGDLSICLVFDYYPNSLSLYDYHFVNFPKFPITNNYLWIYLVQLTNVINSIHSQNLSIGNTLNWRKVLITGDPGRIKLSHCNFMDLLFNDDTDTVVSSGGSTIEGQQQLDYKYLGELLFNLSINIENSNNNTAPKEYRLEEITPQSIDDMRQIDDKFKDVLKYLISDNGDSKKSIHDLTSHFYDKMFMVLESSQTYTEYMESVLSRELENGRLFRLVNKLNCIFGRIESRIDINWSESGTKFPIILFYDYVFHQVDSNGKPIMDLTHVLRCLNKLDAGIQEKLMLVTPDELNCIIISYKELKDLIESTFRSITQ
notes: Pan3, S. cerevisiae, lacking residues 1-162; Pan3 chain of the substrate-free Pan2cat-Pan3Δ(1-162) cryo-EM sample; also called Pan3ΔN; source: Trichoplusia ni Hi5 insect cells, co-expressed with Pan2cat, purified as a complex
stoichiometry N [3]: 2
